B1: TPR t1 (parent)
chain: GACCAAUCUGCCCUCAGAGCUCGAGAACAUCUUCGGAUGCAGAGGAGGCAGGCUUCGGUGGCGCGAUAGCGCCAACGUCCUCAACCUCCAAUGCAUCCCACCACAUGAUGAUGCCUGAAGAGCCUUGGUUUUUUG

Variants of: B1
Test: polymerase ribozyme fitness, log enrichment relative to wild type (log ratio); higher = more active; in vitro selection for triplet polymerase activity
Method in brief: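 Mutant libraries of both subunits of a heterodimeric triplet polymerase ribozyme were PCR-built, transcribed, and selected once in triplicate, with frozen incubation at −7 °C and capture of gel-excised extended constructs on streptavidin beads before RT-PCR. Illumina sequencing of input and output libraries was filtered to genotypes with ≥10 input reads and ≥1 read per output. Fitness is the logarithm of genotype enrichment over wild-type enrichment, using inverse-variance-weighted replicate averages. The logarithm is base 2.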
With C72U G127C U132C the “polymerase ribozyme fitness (log ratio)” value was -1.97. For G10A C56G C82G C115G A121U, the “polymerase ribozyme fitness (log ratio)” value was -0.467. For G42U A43C C104U, the “polymerase ribozyme fitness (log ratio)” value was -0.998. With C22A C56A U112C the “polymerase ribozyme fitness (log ratio)” value was -2.01. In the case of G45C C56U U81G G113C, the “polymerase ribozyme fitness (log ratio)” value is reported as -4.36. In the case of C89A G110U U132C, the “polymerase ribozyme fitness (log ratio)” value is reported as -4.16. With A5C C40U the “polymerase ribozyme fitness (log ratio)” value was -1.31. For C70G A105G G113U U129G, the “polymerase ribozyme fitness (log ratio)” value was -6.51. With A26G C88G C97U C123A the “polymerase ribozyme fitness (log ratio)” value was -3.63. For G63U C98U, the “polymerase ribozyme fitness (log ratio)” value was -2.09. With G45U G47C G52A A83U C124U the “polymerase ribozyme fitness (log ratio)” value was -3.57. In the case of U9G G36C G69U A103C C104U, the “polymerase ribozyme fitness (log ratio)” value is reported as -2.45. With C12U A41G G48A C86U the “polymerase ribozyme fitness (log ratio)” value was -0.927. In the case of A5G C72G, the “polymerase ribozyme fitness (log ratio)” value is reported as -0.844. For C49G G77U A95G, the “polymerase ribozyme fitness (log ratio)” value was -1.23. With G48C G120A the “polymerase ribozyme fitness (log ratio)” value was -0.738. For G45A C73U G113A C115U, the “polymerase ribozyme fitness (log ratio)” value was -4.38. For G39U G44C U59A, the “polymerase ribozyme fitness (log ratio)” value was -2.12. In the case of G48U G71A, the “polymerase ribozyme fitness (log ratio)” value is reported as -1.06. With A37U C101G G128C the “polymerase ribozyme fitness (log ratio)” value was -3.4. With C11G C97A the “polymerase ribozyme fitness (log ratio)” value was -4.05. For G10A G69U U78C A95G C115U, the “polymerase ribozyme fitness (log ratio)” value was 0.452. In the case of C4U G51A G61U C82G C88U G93C, the “polymerase ribozyme fitness (log ratio)” value is reported as -5.15. For C64U A111C C115A, the “polymerase ribozyme fitness (log ratio)” value was -4.52. For G48C A90U U112G, the “polymerase ribozyme fitness (log ratio)” value was -2.32. With A24G C62U U81A the “polymerase ribozyme fitness (log ratio)” value was -3.04. In the case of A50U C72G C79U U112A, the “polymerase ribozyme fitness (log ratio)” value is reported as -3.66. In the case of G110U G127A, the “polymerase ribozyme fitness (log ratio)” value is reported as -2.05. For A27C G71U, the “polymerase ribozyme fitness (log ratio)” value was -3. For U7G C15U C28G U32A A41U G63U C89A U116C, the “polymerase ribozyme fitness (log ratio)” value was -4.52. With A43U U59C the “polymerase ribozyme fitness (log ratio)” value was -1.99. For G61U U81C C101G, the “polymerase ribozyme fitness (log ratio)” value was -2.09. In the case of C123A U125C, the “polymerase ribozyme fitness (log ratio)” value is reported as 0.193. For U21G G61C, the “polymerase ribozyme fitness (log ratio)” value was -3.98. For U59C A66U C102U C124U, the “polymerase ribozyme fitness (log ratio)” value was -4.09. With C13G G57C U109A A111U the “polymerase ribozyme fitness (log ratio)” value was -4.71. In the case of U21G A95C, the “polymerase ribozyme fitness (log ratio)” value is reported as -2.54. With A5G C82G C97A C124A U125G the “polymerase ribozyme fitness (log ratio)” value was -4.89. For G120U G122U, the “polymerase ribozyme fitness (log ratio)” value was 0.765. In the case of C8G C56U C97U, the “polymerase ribozyme fitness (log ratio)” value is reported as 0.547. For C49A G60A, the “polymerase ribozyme fitness (log ratio)” value was -0.214. For A2C C3G C28G C82G A121C G128C, the “polymerase ribozyme fitness (log ratio)” value was -4.07. In the case of G48C C73G G93A, the “polymerase ribozyme fitness (log ratio)” value is reported as -1.8. In the case of G42U C89U, the “polymerase ribozyme fitness (log ratio)” value is reported as -0.954. For C20U C73A A95U U106A G122A, the “polymerase ribozyme fitness (log ratio)” value was -4.57. With A37U A43U G93C U116A the “polymerase ribozyme fitness (log ratio)” value was -6.51. In the case of A18U G110U, the “polymerase ribozyme fitness (log ratio)” value is reported as -3.52. In the case of C8G C49A U96A, the “polymerase ribozyme fitness (log ratio)” value is reported as -0.377. In the case of G61U C114U, the “polymerase ribozyme fitness (log ratio)” value is reported as -0.943. In the case of C20U C28U C72A C94U, the “polymerase ribozyme fitness (log ratio)” value is reported as -1.9. For C13U C31A, the “polymerase ribozyme fitness (log ratio)” value was -5.19. With C12A U59C the “polymerase ribozyme fitness (log ratio)” value was -0.85. For G36A G63A U78C, the “polymerase ribozyme fitness (log ratio)” value was -1.53. In the case of A29C G52U G63C, the “polymerase ribozyme fitness (log ratio)” value is reported as -2.49. For C34U C72U, the “polymerase ribozyme fitness (log ratio)” value was -4.07. For C22U U59C A100C, the “polymerase ribozyme fitness (log ratio)” value was -3.95. For C40U C62G A111G, the “polymerase ribozyme fitness (log ratio)” value was -2.32. With C11U C13G C114A the “polymerase ribozyme fitness (log ratio)” value was -4.11. With A29U G77U the “polymerase ribozyme fitness (log ratio)” value was -1.77. For G36U A105C G135U, the “polymerase ribozyme fitness (log ratio)” value was -4.66. In the case of C11A G42C G51C G57U C62U U78C C89U G113A G122C, the “polymerase ribozyme fitness (log ratio)” value is reported as -6.22. For C89A A100U, the “polymerase ribozyme fitness (log ratio)” value was -2.67. With C3U C11G U21A U129A the “polymerase ribozyme fitness (log ratio)” value was -0.924. With A26U C73A the “polymerase ribozyme fitness (log ratio)” value was -2.82. For G48A U54A, the “polymerase ribozyme fitness (log ratio)” value was -0.741. For A16G A29U C40A G61U, the “polymerase ribozyme fitness (log ratio)” value was -4.63. For C4A U9G C40U G44A U55C C88A G120C, the “polymerase ribozyme fitness (log ratio)” value was -3.07. With C13G C49U C82A C124G U125A the “polymerase ribozyme fitness (log ratio)” value was 0.252. With G51A the “polymerase ribozyme fitness (log ratio)” value was -2.49. For C11U G47A G48A, the “polymerase ribozyme fitness (log ratio)” value was -2.36. For G10U A50U C89G, the “polymerase ribozyme fitness (log ratio)” value was -2.96. For U21C G63C G120A, the “polymerase ribozyme fitness (log ratio)” value was -0.168. For G44C C72U A100C, the “polymerase ribozyme fitness (log ratio)” value was -2.51. For U14G G42C A46C C53U, the “polymerase ribozyme fitness (log ratio)” value was -4.19. In the case of A43C C53A A95U U109A U130G, the “polymerase ribozyme fitness (log ratio)” value is reported as -7.32. With A41U G120C the “polymerase ribozyme fitness (log ratio)” value was -0.366. In the case of C94A U132A, the “polymerase ribozyme fitness (log ratio)” value is reported as -0.269. With G36C G42A C89U C114A G117C the “polymerase ribozyme fitness (log ratio)” value was -6.44. For C12G A18G G44C G71C A84U, the “polymerase ribozyme fitness (log ratio)” value was -6.08. With C49A G110U the “polymerase ribozyme fitness (log ratio)” value was -1.73. In the case of C64A C123U, the “polymerase ribozyme fitness (log ratio)” value is reported as -4.1. For A37U U81G, the “polymerase ribozyme fitness (log ratio)” value was -3.43. For A5C G71U A75U C98U, the “polymerase ribozyme fitness (log ratio)” value was -1.25. In the case of C13U C20A A27G G39A G60A C115A, the “polymerase ribozyme fitness (log ratio)” value is reported as -5.26.
